Test results: paper PMC8131363 (Scientific Reports, 2021)
Counter-ions that a name gives are not always drawn. Starred links: 1 amine or outer side, 2 acyl side, 3 side chain; linkers in the order of their positions; H or OH if unused. Non-standard residues stand in square brackets, D forms with d. No end group written: not given here. γGlu = O=C(O)[C@H](CCC(=O)[*:2])N[*:1]; βAsp = O=C(O)[C@H](CC(=O)[*:2])N[*:1]; Abu = CC[C@H](N)C(=O)O

Key:
[1] = target: domestic cat Calcium Sensing Receptor (cCaSR) (Felis catus)
cCaSR [2] = target: T1, cCaSR (Felis catus, UniProt C7FF08); assay: cell-based; conditions: agonist assay
T1 sequence (C7FF08 1-1081): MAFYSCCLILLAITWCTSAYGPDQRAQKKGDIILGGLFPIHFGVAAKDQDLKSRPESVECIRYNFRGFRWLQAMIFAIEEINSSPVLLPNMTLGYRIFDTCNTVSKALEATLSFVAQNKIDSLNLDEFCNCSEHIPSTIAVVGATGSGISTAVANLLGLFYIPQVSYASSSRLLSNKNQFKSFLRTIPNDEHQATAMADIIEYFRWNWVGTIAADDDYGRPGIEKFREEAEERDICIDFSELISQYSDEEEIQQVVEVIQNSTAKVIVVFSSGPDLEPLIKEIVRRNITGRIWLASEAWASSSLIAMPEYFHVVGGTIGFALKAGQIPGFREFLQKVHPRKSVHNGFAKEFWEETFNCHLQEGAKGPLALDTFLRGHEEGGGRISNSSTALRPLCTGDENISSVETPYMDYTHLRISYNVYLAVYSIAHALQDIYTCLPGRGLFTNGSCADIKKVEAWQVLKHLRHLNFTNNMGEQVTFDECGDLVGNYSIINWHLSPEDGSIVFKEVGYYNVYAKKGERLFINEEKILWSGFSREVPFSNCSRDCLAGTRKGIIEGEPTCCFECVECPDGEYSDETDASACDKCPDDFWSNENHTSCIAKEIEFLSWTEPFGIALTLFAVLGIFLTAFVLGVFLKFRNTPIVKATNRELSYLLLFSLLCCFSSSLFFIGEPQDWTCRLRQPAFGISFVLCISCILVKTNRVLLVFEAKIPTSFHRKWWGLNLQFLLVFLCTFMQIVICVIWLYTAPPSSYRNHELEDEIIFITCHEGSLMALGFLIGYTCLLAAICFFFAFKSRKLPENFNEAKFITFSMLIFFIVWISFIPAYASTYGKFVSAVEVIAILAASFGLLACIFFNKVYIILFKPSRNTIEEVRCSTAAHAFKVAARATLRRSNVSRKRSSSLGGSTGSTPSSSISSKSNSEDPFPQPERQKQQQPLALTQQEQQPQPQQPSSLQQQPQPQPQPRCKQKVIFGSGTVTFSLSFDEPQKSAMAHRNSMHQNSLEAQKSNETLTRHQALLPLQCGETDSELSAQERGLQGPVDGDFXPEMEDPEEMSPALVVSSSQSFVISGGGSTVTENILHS

cCaSR [3] = target: T1, cCaSR
cCaSR [4] = target: T1, cCaSR; assay: cCaSR PAM luminescence assay, double injection with 0.5 mM CaCl2, HEK293/T-REx/natClytin-cCaSR; conditions: Supplementary Table I, PAM assay, dash = no activity
Description: The cCaSR expression constructs were stably-transfected in the mammalian cell line, HEK293/ T-REx/ natClytin. Transfections were performed by electroporation, following standard methodologies. Stably-transfected target and mock pools were obtained after 2–3 weeks of antibiotic selection, and clones were selected for testing. In order to evaluate the activity of each clone, 10 mM Calcium was injected onto the cells and the resulting luminescence was measured.
All compounds screened on the receptor were analysed in parallel with Calcium, on the HEK293/ T-REx/ natClytin-cCaSR or hCaSR stable or transient cell lines. Prior to the measurements, the cells were incubated with 10 µM of photoprotein substrate, Coelenterazine, prepared in Calcium-free Tyrode’s buffer at 37 °C for 3–4 h. All the data was captured using a FLIPR Tetra (Molecular Devices). A single or double injection protocol was used to capture the data for potential agonists and PAMs, respectively. The compounds tested were all prepared at desired concentration in Calcium-Free Tyrode’s buffer supplemented with 0.5% DMSO. For the activity determination of potential agonists, the single injection protocol was used, with CaCl2 as the positive control for each run. Each compound was injected into specific wells and the luminescence signal was measured for 1 min. for each compound. For potential PAMs, the double injection protocol was used. The first injection was identical to the one described above for potential agonists. A 20 min. resting period followed the first injection and a second injection of 0.5 mM CaCl2 in Calcium-free Tyrode’s buffer was injected to all wells, and the resulting luminescence signal was again measured for 1 min for each compound.
The half maximal effective concentrations (EC50) were identified by nonlinear regression using a variable slope model with the equation Y = Bottom + (X^Hillslope)*(Top–Bottom)/ (X^HillSlope + EC50^HillSlope), where Y is the agonist concentration, Top and Bottom are the plateaus in the same units as Y and HillSlope is the Slope factor or Hill slope. All calculations and plots were done using GraphPad Prism 8. […] In these cases the EC50 was noted as being higher than the maximum concentration used in the assay.

[5] = EC50 (M), stable inducible cCaSR line, > 0.01 M = maximal response not reached
[6] = EC50 Ago (M), Supplementary Table I, > 0.01 M = maximal response not reached
[7] = cCaSR activity, stable inducible cCaSR line, at least three wells

| Molecule | EC50 of agonist activity, luminescence (natClytin) in HEK T-Rex/natClytin cells inducibly expressing cCaSR, calcium-free buffer; activity grade ++ [1] [mM] | EC50 of agonist activity, luminescence (natClytin) in HEK T-Rex/natClytin cells inducibly expressing cCaSR, calcium-free buffer; activity grade + [1] [mM] | other results |
| --- | --- | --- | --- |
| [γGlu]-Val | 4.52 |  |  |
| [γGlu]-Met |  | > 10 |  |
| [γGlu]-Cys |  | > 10 |  |
| [γGlu]-Gln |  | > 10 |  |
| γ-Glu-Abu (peptide) |  | > 10 |  |
| [βAsp]-Leu |  | 3.15 |  |
| [γGlu]-Glu-Glu | 2.35 |  |  |
| [βAsp]-Gly |  | > 10 |  |
| [γGlu]-Val-Gly | 4.22 |  |  |
| [βAsp]-Ala |  | > 10 |  |
| [γGlu]-Glu | 2.07 |  |  |
| S-Methylglutathione (peptide) | 4.42 |  |  |
| Poly-L-lysine (peptide) |  | > 10 |  |
| [γGlu]-Leu |  | > 10 |  |
| [γGlu]-[Abu]-Gly | 2.65 |  |  |
| γ-D-Glu-Trp (peptide) | 4.2 |  |  |

| Molecule | EC50 of agonist activity, luminescence (natClytin) in HEK T-Rex/natClytin cells inducibly expressing cCaSR, calcium-free buffer; activity grade ++ [1] [mM] | EC50 of agonist activity, luminescence (natClytin) in HEK T-Rex/natClytin cells inducibly expressing cCaSR, calcium-free buffer; activity grade + [1] [mM] | other results |
| --- | --- | --- | --- |
| [γGlu]-Ala |  | > 10 |  |
| 3-Glutathionyl-S-methylindole (peptide) | 3.74 |  |  |
| N[C@@H](CS(=O)(=O)O)C(=O)O [L-Cysteic acid monohydrate] |  |  | EC50 (cCaSR [2]; [5]): 0.00234 M; EC50 (cCaSR [2]; [6]): 0.00234 M; EC50 (cCaSR [2]; [7]): 0.001 to 0.01 M; agonist activity on cCaSR (in words) (cCaSR [3]): agonist activity; EC50 PAM (M) (cCaSR [4]): - |
| [γGlu]-Gly |  | > 10 |  |
| S-Lactoylglutathione (peptide) |  | > 10 |  |
| NC(CCCCC(=O)O)C(=O)O (stereo not shown) [2-Aminopimelic acid] |  |  | EC50 (cCaSR [2]; [7]): > 0.01 M; EC50 Ago (M) (cCaSR [3]; Supplementary Table I, agonist assay, dash = no activity): -; EC50 PAM (M) (cCaSR [4]): - |
| [γGlu]-Tyr | 3.88 |  |  |
| [βAsp]-Phe |  | > 10 |  |
| γ-Glu-Phe (peptide) | 2.32 |  |  |
| S-(2-Hydroxyethyl)glutathione (peptide) | 2.11 |  |  |
| COC(=O)C[C@H](N)C(=O)O [L-Aspartic acid β-methyl ester hydrochloride] |  |  | EC50 (cCaSR [2]; [7]): > 0.01 M; agonist activity on cCaSR (in words) (cCaSR [3]): agonist activity; EC50 PAM (M) (cCaSR [4]): - |
| [γGlu]-Glu-Gln |  | > 10 |  |
| C[Se]C[C@H](N)C(=O)O [Se-(Methyl)selenocysteine] |  |  | EC50 (cCaSR [2]; [5]): 0.00447 M; EC50 (cCaSR [2]; [6]): 0.00447 M; EC50 (cCaSR [2]; [7]): 0.001 to 0.01 M; agonist activity on cCaSR (in words) (cCaSR [3]): agonist activity; EC50 PAM (M) (cCaSR [4]): - |
| [γGlu]-Trp |  | > 10 |  |
| Glutathione (peptide) | 6.39 |  |  |
| COC(=O)C(N)CC(=O)O (racemic) [DL-Aspartic acid α-methyl ester] |  |  | EC50 (cCaSR [2]; [7]): > 0.01 M; agonist activity on cCaSR (in words) (cCaSR [3]): agonist activity; EC50 PAM (M) (cCaSR [4]): - |
